Biological target: β amyloid (Aβ) 1-40 peptide
Assay: cell-based or functional assay

β amyloid (Aβ) 1-40 peptide, sequence (peptide, as listed by the source): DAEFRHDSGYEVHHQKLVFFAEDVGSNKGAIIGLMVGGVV

| inhibition of Aβ aggregation, Congo red assay | inhibition of Aβ aggregation, thioflavin-T fluorescence assay | Substance | protection of SHSY-5Y neuronal cells from Aβ-induced death, MTT assay (% more surviving cells than control) |
| --- | --- | --- | --- |
|  |  | AABA protein (β amyloid aggregation blocking activity protein) from Streptomyces sp. KK565 (enzyme) | 20 |
| 93.2 % inhibition | 97 % inhibition | AABA protein (β amyloid aggregation blocking activity protein) from Streptomyces sp. KK565 |  |
